Earlier results, collected in US6518244B2, “Combinations of heparin cofactor II agonist and platelet IIb/IIIa antagonist, and uses thereof” (IntimaX Corporation, priority 2000, dated 2003).

Details: recipients of hirudin; cited from Huhle et al, Br. J. Haematol. (1999)

For hirudin, the “recipients in whom anti-hirudin antibodies are elicited” value is given as 74%.
